Measured values from IntAct's records for PubMed 32296183.

B1: Transmembrane protein 43 (Homo sapiens), Q9BTV4 (parent)
chain: MAANYSSTSTRREHVKVKTSSQPGFLERLSETSGGMFVGLMAFLLSFYLIFTNEGRALKTATSLAEGLSLVVSPDSIHSVAPENEGRLVHIIGALRTSKLLSDPNYGVHLPAVKLRRHVEMYQWVETEESREYTEDGQVKKETRYSYNTEWRSEIINSKNFDREIGHKNPSAMAVESFMATAPFVQIGRFFLSSGLIDKVDNFKSLSLSKLEDPHVDIIRRGDFFYHSENPKYPEVGDLRVSFSYAGLSGDDPDLGPAHVVTVIARQRGDQLVPFSTKSGDTLLLLHHGDFSAEEVFHRELRSNSMKTWGLRAAGWMAMFMGLNLMTRILYTLVDWFPVFRDLVNIGLKAFAFCVATSLTLLTVAAGWLFYRPLWALLIAGLALVPILVARTRVPAKKLE
B2: Golgi SNAP receptor complex member 2 (Homo sapiens), O14653 (parent)
chain: MDPLFQQTHKQVHEIQSCMGRLETADKQSVHIVENEIQASIDQIFSRLERLEILSSKEPPNKRQNARLRVDQLKYDVQHLQTALRNFQHRRHAREQQERQREELLSRTFTTNDSDTTIPMDESLQFNSSLQKVHNGMDDLILDGHNILDGLRTQRLTLKGTQKKILDIANMLGLSNTVMRLIEKRAFQDKYFMIGGMLLTCVVMFLVVQYLT
partner: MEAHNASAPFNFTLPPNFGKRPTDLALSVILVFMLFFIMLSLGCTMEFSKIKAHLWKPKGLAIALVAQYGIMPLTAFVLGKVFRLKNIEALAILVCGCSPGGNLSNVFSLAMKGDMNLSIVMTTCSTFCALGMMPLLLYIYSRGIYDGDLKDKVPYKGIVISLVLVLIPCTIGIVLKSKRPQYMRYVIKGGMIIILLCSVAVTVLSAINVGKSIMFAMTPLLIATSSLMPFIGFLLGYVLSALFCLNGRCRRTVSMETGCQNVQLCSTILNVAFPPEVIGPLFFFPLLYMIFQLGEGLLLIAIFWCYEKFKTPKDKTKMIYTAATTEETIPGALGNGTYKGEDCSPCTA
B3: Catenin alpha-3 (Homo sapiens), Q9UI47-2 (parent)
chain: MSAETPITLNIDPQDLQVQTFTVEKLLEPLIIQVTTLVNCPQNPSSRKKGRSKRASVLLASVEEATWNLLDKGEKIAQEATVLKDELTASLEEVRKESEALKVSAERFTDDPCFLPKREAVVQAARALLAAVTRLLILADMIDVMCLLQHVSAFQRTFESLKNVANKSDLQKTYQKLGKELENLDYLAFKRQQDLKSPNQRDEIAGARASLKENSPLLHSICSACLEHSDVASLKASKDTVCEEIQNALNVISNASQGIQNMTTPPEPQAATLGSALDELENLIVLNPLTVTEEEIRPSLEKRLEAIISGAALLADSSCTRDLHRERIIAECNAIRQALQDLLSEYMNNAGKKERSNTLNIALDNMCKKTRDLRRQLRKAIIDHVSDSFLDTTVPLLVLIEAAKNGREKEIKEYAAIFHEHTSRLVEVANLACSMSTNEDGIKIVKIAANHLETLCPQIINAALALAARPKSQAVKNTMEMYKRTWENHIHVLTEAVDDITSIDDFLAVSGMFLFF
partner: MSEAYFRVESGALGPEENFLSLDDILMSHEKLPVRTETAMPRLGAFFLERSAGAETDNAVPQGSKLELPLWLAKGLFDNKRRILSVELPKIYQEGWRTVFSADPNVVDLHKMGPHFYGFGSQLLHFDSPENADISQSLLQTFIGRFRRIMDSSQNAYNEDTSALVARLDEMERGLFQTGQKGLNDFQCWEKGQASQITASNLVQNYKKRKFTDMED
B4: Catenin alpha-3 (Homo sapiens), Q9UI47-2 (parent)
chain: B3 chain
partner: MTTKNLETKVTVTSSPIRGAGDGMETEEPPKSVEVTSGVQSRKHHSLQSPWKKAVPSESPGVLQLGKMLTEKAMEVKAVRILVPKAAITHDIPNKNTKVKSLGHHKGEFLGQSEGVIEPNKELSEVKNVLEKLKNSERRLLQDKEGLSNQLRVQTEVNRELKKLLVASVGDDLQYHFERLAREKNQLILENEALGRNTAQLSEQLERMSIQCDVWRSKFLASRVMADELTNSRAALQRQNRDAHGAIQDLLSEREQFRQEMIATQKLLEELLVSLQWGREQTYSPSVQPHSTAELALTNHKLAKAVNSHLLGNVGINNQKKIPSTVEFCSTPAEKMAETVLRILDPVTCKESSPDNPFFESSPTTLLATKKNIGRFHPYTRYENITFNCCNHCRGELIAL
B5: Golgi SNAP receptor complex member 2 (Homo sapiens), O14653 (parent)
chain: B2 chain
partner: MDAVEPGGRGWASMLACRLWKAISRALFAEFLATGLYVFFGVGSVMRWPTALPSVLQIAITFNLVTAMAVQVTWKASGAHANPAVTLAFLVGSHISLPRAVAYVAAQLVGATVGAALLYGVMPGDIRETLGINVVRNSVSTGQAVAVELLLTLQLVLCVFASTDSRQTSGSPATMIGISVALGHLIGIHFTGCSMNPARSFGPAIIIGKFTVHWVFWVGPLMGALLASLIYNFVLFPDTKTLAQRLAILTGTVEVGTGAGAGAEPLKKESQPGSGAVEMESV
B6: Transmembrane protein 43 (Homo sapiens), Q9BTV4 (parent)
chain: B1 chain
partner: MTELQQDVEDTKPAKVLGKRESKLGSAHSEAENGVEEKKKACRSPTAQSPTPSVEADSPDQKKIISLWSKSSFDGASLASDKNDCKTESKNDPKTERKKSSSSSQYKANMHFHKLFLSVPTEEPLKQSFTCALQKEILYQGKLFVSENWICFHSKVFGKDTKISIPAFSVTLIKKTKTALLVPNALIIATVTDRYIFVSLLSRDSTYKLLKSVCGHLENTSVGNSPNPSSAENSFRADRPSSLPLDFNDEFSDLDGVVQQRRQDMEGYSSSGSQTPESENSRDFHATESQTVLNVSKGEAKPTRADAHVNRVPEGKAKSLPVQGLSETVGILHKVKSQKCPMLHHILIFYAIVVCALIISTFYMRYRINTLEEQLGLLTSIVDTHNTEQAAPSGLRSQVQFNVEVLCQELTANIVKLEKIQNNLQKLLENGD
B7: Succinate--CoA ligase [ADP-forming] subunit beta, mitochondrial (Homo sapiens), Q9P2R7 (parent)
chain: MAASMFYGRLVAVATLRNHRPRTAQRAAAQVLGSSGLFNNHGLQVQQQQQRNLSLHEYMSMELLQEAGVSVPKGYVAKSPDEAYAIAKKLGSKDVVIKAQVLAGGRGKGTFESGLKGGVKIVFSPEEAKAVSSQMIGKKLFTKQTGEKGRICNQVLVCERKYPRREYYFAITMERSFQGPVLIGSSHGGVNIEDVAAESPEAIIKEPIDIEEGIKKEQALQLAQKMGFPPNIVESAAENMVKLYSLFLKYDATMIEINPMVEDSDGAVLCMDAKINFDSNSAYRQKKIFDLQDWTQEDERDKDAAKANLNYIGLDGNIGCLVNGAGLAMATMDIIKLHGGTPANFLDVGGGATVHQVTEAFKLITSDKKVLAILVNIFGGIMRCDVIAQGIVMAVKDLEIKIPVVVRLQGTRVDDAKALIADSGLKILACDDLDEAARMVVKLSEIVTLAKQAHVDVKFQLPI
partner: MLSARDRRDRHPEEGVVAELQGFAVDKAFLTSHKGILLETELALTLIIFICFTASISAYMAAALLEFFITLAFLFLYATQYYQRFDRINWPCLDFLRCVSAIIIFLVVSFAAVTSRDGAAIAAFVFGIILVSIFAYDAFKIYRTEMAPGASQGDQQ
B8: Very-long-chain enoyl-CoA reductase (Homo sapiens), Q9NZ01 (parent)
chain: MKHYEVEILDAKTREKLCFLDKVEPHATIAEIKNLFTKTHPQWYPARQSLRLDPKGKSLKDEDVLQKLPVGTTATLYFRDLGAQISWVTVFLTEYAGPLFIYLLFYFRVPFIYGHKYDFTSSRHTVVHLACICHSFHYIKRLLETLFVHRFSHGTMPLRNIFKNCTYYWGFAAWMAYYINHPLYTPPTYGAQQVKLALAIFVICQLGNFSIHMALRDLRPAGSKTRKIPYPTKNPFTWLFLLVSCPNYTYEVGSWIGFAIMTQCLPVALFSLVGFTQMTIWAKGKHRSYLKEFRDYPPLRMPIIPFLL
partner: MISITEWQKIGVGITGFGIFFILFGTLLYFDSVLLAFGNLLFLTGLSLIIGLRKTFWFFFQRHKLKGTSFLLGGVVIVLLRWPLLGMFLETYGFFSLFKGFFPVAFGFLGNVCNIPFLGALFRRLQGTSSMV

Variants of: B1
Conditions: with ubp25_human USP25, Q9UHP3
Chain of ubp25_human USP25, Q9UHP3 (Q9UHP3 whole entry): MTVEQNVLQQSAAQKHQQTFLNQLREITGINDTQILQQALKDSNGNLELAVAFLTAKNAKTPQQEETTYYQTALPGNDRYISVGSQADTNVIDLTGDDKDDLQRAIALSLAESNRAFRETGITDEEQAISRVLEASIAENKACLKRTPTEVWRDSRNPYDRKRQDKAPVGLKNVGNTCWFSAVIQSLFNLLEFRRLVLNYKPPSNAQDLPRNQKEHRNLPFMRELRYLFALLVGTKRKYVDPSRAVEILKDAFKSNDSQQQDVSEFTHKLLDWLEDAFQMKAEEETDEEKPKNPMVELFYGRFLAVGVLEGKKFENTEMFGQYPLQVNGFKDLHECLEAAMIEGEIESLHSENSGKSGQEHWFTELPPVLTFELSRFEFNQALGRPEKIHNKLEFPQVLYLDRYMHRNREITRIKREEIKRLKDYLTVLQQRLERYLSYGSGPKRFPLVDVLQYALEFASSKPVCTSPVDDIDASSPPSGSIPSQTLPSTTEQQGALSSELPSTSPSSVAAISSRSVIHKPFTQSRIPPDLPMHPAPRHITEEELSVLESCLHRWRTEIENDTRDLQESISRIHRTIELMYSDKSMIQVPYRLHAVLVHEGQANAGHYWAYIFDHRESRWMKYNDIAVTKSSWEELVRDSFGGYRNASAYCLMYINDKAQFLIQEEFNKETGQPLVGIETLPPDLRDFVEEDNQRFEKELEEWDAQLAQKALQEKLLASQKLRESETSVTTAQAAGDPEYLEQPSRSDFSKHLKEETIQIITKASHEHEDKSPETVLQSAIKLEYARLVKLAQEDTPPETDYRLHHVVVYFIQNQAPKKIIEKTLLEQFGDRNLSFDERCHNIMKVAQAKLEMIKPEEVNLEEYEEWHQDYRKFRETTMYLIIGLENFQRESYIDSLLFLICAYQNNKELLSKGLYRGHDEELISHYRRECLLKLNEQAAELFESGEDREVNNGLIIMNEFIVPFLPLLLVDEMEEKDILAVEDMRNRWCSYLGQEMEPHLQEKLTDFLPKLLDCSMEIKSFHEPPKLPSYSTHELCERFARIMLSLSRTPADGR

| Variant | effect of a mutation on the interaction |
| --- | --- |
| E85K | with no effect |
| Y371H | with no effect |

Variants of: B1
Conditions: with ar13b_human ARL13B

| Variant | effect of a mutation on the interaction |
| --- | --- |
| E85K | disrupting interaction strength |
| Y371H | with no effect |

Variants of: B1
Conditions: with FGA

| Variant | effect of a mutation on the interaction |
| --- | --- |
| E85K | with no effect |
| Y371H | with no effect |

Variants of: B1
Conditions: with PCYT1B

| Variant | effect of a mutation on the interaction |
| --- | --- |
| E85K | with no effect |
| Y371H | with no effect |

Variants of: B1
Conditions: with zch12_human ZCCHC12, Q6PEW1
Chain of zch12_human ZCCHC12, Q6PEW1 (Q6PEW1 whole entry): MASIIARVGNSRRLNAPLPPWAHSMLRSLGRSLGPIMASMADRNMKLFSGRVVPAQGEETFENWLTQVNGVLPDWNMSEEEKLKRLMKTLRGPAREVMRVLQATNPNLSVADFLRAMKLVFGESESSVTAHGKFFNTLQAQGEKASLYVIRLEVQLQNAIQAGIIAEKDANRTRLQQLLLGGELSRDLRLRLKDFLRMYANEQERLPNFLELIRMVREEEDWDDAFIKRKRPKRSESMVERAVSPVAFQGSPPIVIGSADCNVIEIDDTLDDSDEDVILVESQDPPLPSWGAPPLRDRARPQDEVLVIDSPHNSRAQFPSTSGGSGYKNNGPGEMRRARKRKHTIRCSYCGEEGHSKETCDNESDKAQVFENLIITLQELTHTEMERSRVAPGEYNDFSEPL

| Variant | effect of a mutation on the interaction |
| --- | --- |
| E85K | with no effect |
| Y371H | with no effect |

Variants of: B2
Conditions: with ntcp_human SLC10A1, Q14973

| Variant | effect of a mutation on the interaction |
| --- | --- |
| G144W | with no effect |

Variants of: B3
Conditions: with psf3_human GINS3, Q9BRX5

| Variant | effect of a mutation on the interaction |
| --- | --- |
| V94D | disrupting interaction strength |

Variants of: B4
Conditions: with go45_human BLZF1, Q9H2G9

| Variant | effect of a mutation on the interaction |
| --- | --- |
| V94D | disrupting interaction strength |

Variants of: B5
Conditions: with aqp6_human AQP6, Q13520

| Variant | effect of a mutation on the interaction |
| --- | --- |
| G144W | with no effect |

Variants of: B6
Conditions: with grm2b_human GRAMD2B

| Variant | effect of a mutation on the interaction |
| --- | --- |
| Y371H | with no effect |
| I91V | with no effect |
| E85K | with no effect |
| E142K | with no effect |

Variants of: B7
Conditions: with CMTM5, Q96DZ9-2

| Variant | effect of a mutation on the interaction |
| --- | --- |
| D251N | disrupting interaction strength |
| G118R | disrupting interaction strength |

Variants of: B8
Conditions: with got1a_human GOLT1A

| Variant | effect of a mutation on the interaction |
| --- | --- |
| P182L | with no effect |
